Reference: a protein production outcome set (Wang et al. 2014)

Test: label from the status in PepcDB records

| Sequence | protein production |
| --- | --- |
| MSENQDELLHYRLSLRLGPVHARQRLGIERETEARVFGRDKRSFHLENLTNAPKLIRFCLKAVGLLRRAQANSLKLTTEHNTFVLPDLPSAFEGFRILHLTDLHVDMDEANLQAVIRQIAPLDYDLCVLTGDYRQRTWGPVDDALDGMARLRLAIHGDAYAVLGNHDSVRMVPALEDMGYRLLMNEMVPLERGDSRLYLAGVDDAHYYKVHNLHRAGDDIPAGGISLLLSHTPEIWREAAHAGYDLFLCGHTHGGQLCLPGGIPLTLDSDCPRRLGRGLWQVNGMQGYTSPGAGTSVLNVRLNCPPEVTIHTLTRGPLEHHHHHH | failed |
| MSEPFSVPVTVRGYETDTQGHLNQSVYLNYAEHARWSLLQAAGIRQADLVARGVGPVALETTIRFQRELLAGDEVTVTCAFEWGTGKTFRIRQLVTKADGTVAAEIEAVGGLMDLGERRLVPDPRQRFKELAARPELFGLLEHHHHHH | failed |
| MSEPIDILIAGAGIGGLSCALALHQAGIGKVTLLESSSEIRPLGVGINIQPAAVEALAELGLGPALAATAIPTHELRYIDQSGATVWSEPRGVEAGNAYPQYSIHRGELQMILLAAVRERLGQQAVRTGLGVERIEERDGRVLIGARDGHGKPQALGADVLVGADGIHSAVRAHLHPDQRPLSHGGITMWRGVTEFDRFLDGKTMIVANDEHWSRLVAYPISARHAAEGKSLVNWVCMVPSAAVGQLDNEADWNRDGRLEDVLPFFADWDLGWFDIRDLLTRNQLILQYPMVDRDPLPHWGRGRITLLGDAAHLMYPMGANGASQAILDGIELAAALARNADVAAALREYEEARRPTANKIILANREREKEEWAAASRPKTEKSAALEAITGSYRNQVERPRLEHHHHHH | not failed |
| MSEQKEDLFKPVGEAAAEVEDESIAEQNKANDGVKLTGAQDAMGHPVQEIESLCMNCGKNGTTRLLLTSIPYFREIIIMSFDCPHCGFKNCEIQPASQIQEKGSRYVLKVECREDFNRQVIKSETATCKFVELDIEIPAKRGQLTTVEGLLSEMIDDLSQDQEMRKSIDEALYKKIDDFIQKVKSYINCEPNTIPITFILDDPAGNSWIEYKPGEPQHKWSHTQYVRTDEQNVQVGIITRDQLEQRRQEQLKQLANRERNPSESVKVGSANPQFLSDATDIENFNNEVQTFRASCPSCTQECETHMKPVNIPHFKEVIIMSTVCDHCGYKSNEVKTGGAIPDKGRRITLYCDDAADLSRDILKSETCSMVIPELHLDIQEGTLGGRFTTLEGLLRQVYEELESRIFTQTSDSMDEATKARWVEFFAKLKEAIAGKVKFTVIMEDPLAGSYIQNVYAPDPDPNMTIEDYERTKEQNEDLGLSDIKVE | failed |
| MSERNLPLEYHPFPAILPKSATVAMLGTFPPTSEKRCMEFHYPNFQNDMWRIMGLLFYKNLDHFRVDQEKRFDPVRIEAFLREKGIALCSSAQTAIRLKGNASDKDLKIIDAIDMQALLTELPQLKWLFTTGGLATETLLSLLPEKSKLPKTNEWINYPYTTDRTLYLYRLPSTSRAYPLSLAKKVEAYRQFFVRVGVL | failed |
| MSETATWQPSASIPNLLKRAAIMAEIRRFFADRGVLEVETPCMSQATVTDIHLFPFETRFVGPGHSQGINLYLMTSPEYHMKRLLAAGCGPVFQLCRSFRNEEMGRHHNPEFTMLEWYRPHYDMYRLMNEVDDLLQQVLDCQPAESLSYQQAFQRHLEIDPLSADKTQLREAAAKLDLSNIADTEEDRDTLLQLLFTMGVEPHIGKEKPTFIYHFPASQASLAQISTEDHRVAERFEVYYKGIELANGFHELTDAREQQQRFEQDNRKRAARGLPQQPIDQNLLDALAAGLPDCSGVALGVDRLVMLALGAESLADVIAFTVDRA | not failed |
| MSFASETKKELTHMDVSDSDAKVELAAFIRMNGAISFSNQLVIMDVQTENAAIARRMYQLLKDLYEVPIELLVRRKMKLKKNNVYIVRLKSGTRGILEDLRILEPPMTFTKSIDRGFVKKRSAKRAYLRGAFLASGSVNNPETSSYHLEIFSVYEEHNEAICALMNQFDLNARTLERKNGFITYLKEAEKITEFLSIIGATSALLHFEDVRIMRDMRNSVNRLVNCETANLNKTINAAVRQIDNIKYIQSTVGLEALPERLREIAALRIANEDVTLKELGEMLTTGQVSKSGINHRLRKLDQIAERLRSGETPAQVGLKVSNS | failed |
| MSFEEFTPLNEKSLVDYIKSTPALSSKIGADKSDDDLVIKEVGDGNLNFVFIVVGSSGSLVIKQALPYIRCIGESWPMTKERAYFEATTLRKHGNLSPDHVPEVYHFDRTMALIGMRYLEPPHIILRKGLIAGIEYPFLADHMSDYMAKTLFFTSLLYHDTTEHRRAVTEFCGNVELCRLTEQVVFSDPYRVSTFNRWTSPYLDDDAKAVREDSALKLEIAELKSMFCERAQALIHGDLHTGSVMVTQDSTQVIDPEFSFYGPMGFDIGAYLGNLILAFFAQDGHATQENDRKEYKQWILRTIEQTWNLFNKRFIALWDQNKDGPGEAYLADIYNNTEVLKFVQENYMRNLLHDSLGFGAAKMIRRIVGVAHVEDFESIEEDKRRAICERSALEFAKMLLKERRKFKSIGEVVSAIQQQS | failed |
| MSGDAATDADAGRAGPGGVFGVGFRSLLRREILRFVRRPRNTFAPPAITNVLYFAVFGVILGQRIDDIAGFDYIVFLLPGLVVLGAISNAFENASFSIFHGRWNEYIHETLTAPLSYSSMVLAYVFAAALRGIIVGLIIVAVGLVFTTVPVNEPLYLAAFMVVVPLLFASLGVIGGLVAEDFDDLTVMNQFILRPLVFFGAVFYSLEILPPLYRTLSLLNPMVYMVNGVRYGFLGYQEVDPLASLAVLSGLTAAVIVLDIYLFKRGYGLID | failed |
| MSGFDLIIFDCDGVLVDSEIIAAQVESRLLTEAGYPISVEEMGERFAGMTWKNILLQVESEASIPLSASLLDKSEKLLDMRLERDVKIIDGVKFALSRLTTPRCICSNSSSHRLDMMLTKVGLKPYFAPHIYSAKDLGADRVKPKPDIFLHGAAQFGVSPDRVVVVEDSVHGIHGARAAGMRVIGFTGASHTYPSHADRLTDAGAETVISRMQDLPAVIAAMAEWEGAF | not failed |
| MSGLRAGHMPKGRLSGRPSFYFFSQAKLMSRQLDHGRETLMDIFHRHRLSNEGYAASVLERAMQTAEHRPEALVWKGMAALAHNPKLAFLFFINAAQLLPDRADVQALVGRALLAQGLAVLATRYLTQAWQKLPDDASLRMLLWQARSQSEPPATLRSMILAHLPEINAPKELAQVIKLLAAQADAPRRIGVVRYLETHREIQGWAIDLGNLQAPASLKIEADSVNVDAVASIPHPLLSAAGLCTTHGGLRVSVPNPKAQVHIRFADNTHLVGSPVFAMPSFVPPIEQGTQVEQKHVDVLIPVYNGLHETLECINSALEARKLNRTPHRLVVIEDATPVPALAKALKMLAGKGKITLVNNAVNMGFIRTMNRAMALSPGRDVVWLNADTRVQGNWLDRLRNIAHSSADIASVTPFTNNGELMSFPQSQVSHAMPNAREQAALDELAKHANISPVEIETGCGFCLYIKRAALNQVGYLDEVYLARGYGEETDWCLRARSFGWRHMGAPNVFVAHQGGISFGAEKTLRVAHNNAILRRRYPGASARYSAFCLRDPIKAARDALQRARLARFAQQSDEQKASQWPMEAGNTLHIHDGTGADSTLSLVWHRDSHRTWVTLKAPLAPLPLELDYEMPGEFSELVQNLATLPLKGVVLEHQVQCPSKLCDLPSLLNIPYTIVHRDGHLQGLDATYDWQRLANRAESVVLPWQSWHSAFAEAFPQANLVIQPCAELPTPATSQPNILLIGDALDDTDIIQTWVRLGRRITRERLPLTLLVKQDTPWLKTLSATGAVQALPQVTGFSLPEIAKATGCDAVVSLAASPGEKWLAPELASQLDLPLYTRCHSLGTEAGATCVTQLPFSLSQA | failed |
| MSGPGSDPVFAALTRPQMVAGVTYSYAVFNLIVTMEAFLISKSFWALLIAPLVHAVGYLGCLNEPRFFDLWITKVSRCPNIRNRGFWQANSYRP | failed |
| MSGQHRTRVGGVILAAGRSSRYESGNKLLATIDGKAVVRQVTETACKSSLSDAVAVLGHEKVAVAAALDGLSLSVQHNDEYATGQSASVRHGVEFARSAGWDAALFLLGDMPFVRVETIEELLEAYRTGTATVVVPEHEGRRGNPVLFDNCHFDSLASVSGDRGGRDIIETTEKTAFIEVSDPGVHWDIDTDADLAEFTDRRDSLLEHHHHHH | not failed |
| MSGSLEIPGLDDGLLPVETGYGLFQGTAKKRVVICNDNDKFRHSGPLPRALCGSFAAIGLLPLPVVETRPAPPPKVAPITPALQGKACGQAVFEGLRNKNAVETVDNLPALRQTARTGKRWKALESLMQETPAIIYKIVPETLWTAARAEGMFEGAAIDLTDGFIHFSTAKQVAETAARHFSGQVDLLLIAVDGAALGDKLVYEPSRGGDLFPHLYAPLPFSAVLWETPLSLDHDGQHQFPEILLEHHHHHH | failed |
